# Laboratory results: patent US20040120923A1
# Legend:
# IL-18 (human) = IL-18 (human) (UniProt Q14116); assay: cell-based or functional assay
# IL-18BP (human) = IL-18BP (human) (UniProt O95998); assay: cell-based or functional assay
# Chain of IL-18BP (human) (O95998 31-194): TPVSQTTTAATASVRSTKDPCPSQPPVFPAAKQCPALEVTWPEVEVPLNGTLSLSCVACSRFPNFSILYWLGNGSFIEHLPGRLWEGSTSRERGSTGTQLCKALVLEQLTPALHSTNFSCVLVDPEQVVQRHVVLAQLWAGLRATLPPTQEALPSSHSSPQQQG
# Chain of IL-18 (human) (Q14116 37-193 limits assumed): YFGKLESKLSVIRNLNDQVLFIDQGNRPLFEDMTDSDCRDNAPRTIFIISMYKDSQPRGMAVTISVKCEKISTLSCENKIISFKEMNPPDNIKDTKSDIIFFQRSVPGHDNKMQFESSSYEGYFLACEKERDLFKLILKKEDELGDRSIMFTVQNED
Substance,"activity of IL-18 (IFNγ release by NKO cells, % of IL-18 25 ng/ml plus IL-12 without IL-18BP or IL-1F7b) at 3.12 ng/ml of IL-18BP, without IL-1F7b (IL-18 (human)) [%]","activity of IL-18 (IFNγ release by NKO cells, % of IL-18 25 ng/ml plus IL-12 without IL-18BP or IL-1F7b) at 6.25 ng/ml of IL-18BP, without IL-1F7b (IL-18 (human)) [%]","activity of IL-18 (IFNγ release by NKO cells, %) at 3.12 ng/ml of IL-18BP with mature IL-1F7b 250 ng/ml (IL-18BP (human)) [%]","activity of IL-18 (IFNγ release by NKO cells, %) at 6.25 ng/ml of IL-18BP with mature IL-1F7b 250 ng/ml (IL-18BP (human)) [%]",further decrease in activity of IL-18 at 3.12 ng/ml of IL-18BP with mature IL-1F7b (IL-18BP (human)) [%],further decrease in activity of IL-18 at 6.25 ng/ml of IL-18BP with mature IL-1F7b (IL-18BP (human)) [%]
IL-18BP (from UniProt O95998 31-194) (receptor),59,76,–,–,–,–
mature IL-1F7b (N-terminus E21) (from UniProt Q9NZH6 21-218) (ligand),–,–,40,55,19,21
